Experimental data published in patent publication US20180346564A1 (TEIJIN PHARMA, published 2018).
[ ]: non-standard residue; d: D form. pT = C[C@@H](OP(=O)(O)O)[C@H](N)C(=O)O; pS = N[C@@H](COP(=O)(O)O)C(=O)O

T1: Peptide No. 4, pT212/pS214, H-GCGSPGTPGSRSR(pT)P(pS)LPTPPTREPK-OH (human, phosphothreonine (pT) at peptide position 14 (tau Thr212); phosphoserine (pS) at peptide position 16 (tau Ser214))
T1 peptide: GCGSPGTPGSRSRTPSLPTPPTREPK

T2: Peptide No. 1, pS46, H-GLKE(pS)PLQT-OH (human, SMILES CC(C)C[C@H](NC(=O)CN)C(=O)N[C@@H](CCCCN)C(=O)N[C@@H](CCC(=O)O)C(=O)N[C@@H](COP(=O)(O)O)C(=O)N1CCC[C@H]1C(=O)N[C@@H](CC(C)C)C(=O)N[C@@H](CCC(N)=O)C(=O)N[C@H](C(=O)O)[C@@H](C)O)
T2 peptide: H-GLKE[pS]PLQT-OH

T3: Peptide No. 8, pS412, H-NV(pS)STGSC-OH (human, SMILES CC(C)[C@H](NC(=O)[C@@H](N)CC(N)=O)C(=O)N[C@@H](COP(=O)(O)O)C(=O)N[C@@H](CO)C(=O)N[C@H](C(=O)NCC(=O)N[C@@H](CO)C(=O)N[C@@H](CS)C(=O)O)[C@@H](C)O)
T3 peptide: H-NV[pS]STGSC-OH

T4: Peptide No. 2, pS199, H-SGYS(pS)PGSPGC-OH (human, SMILES N[C@@H](CO)C(=O)NCC(=O)N[C@@H](Cc1ccc(O)cc1)C(=O)N[C@@H](CO)C(=O)N[C@@H](COP(=O)(O)O)C(=O)N1CCC[C@H]1C(=O)NCC(=O)N[C@@H](CO)C(=O)N1CCC[C@H]1C(=O)NCC(=O)N[C@@H](CS)C(=O)O)
T4 peptide: H-SGYS[pS]PGSPGC-OH

T5: Peptide No. 7, pS396/pS400/pS404, H-GC-RENAKAKTDHGAEIVYK(pS)PVV(pS)GDT(pS)PRHL-OH (human, phosphoserine (pS) at peptide positions 20, 24 and 28 (tau Ser396, Ser400, Ser404))
T5 peptide: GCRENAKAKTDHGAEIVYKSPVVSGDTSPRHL

T6: Peptide No. 5, pT217, H-GC-GSRSRTPSLP(pT)PPTREPKKVAVV-OH (human, phosphothreonine (pT) at peptide position 13 (tau Thr217))
T6 peptide: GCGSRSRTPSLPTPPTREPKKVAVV

T7: Peptide No. 6, pT231, H-KVAVVR(pT)PPKSPS-OH (human)
T7 peptide: H-KVAVVR[pT]PPKSPS-OH

T8: Peptide No. 3, pS202, H-SSPG(pS)PGTPC-OH (human, SMILES C[C@@H](O)[C@H](NC(=O)CNC(=O)[C@@H]1CCCN1C(=O)[C@H](COP(=O)(O)O)NC(=O)CNC(=O)[C@@H]1CCCN1C(=O)[C@H](CO)NC(=O)[C@@H](N)CO)C(=O)N1CCC[C@H]1C(=O)N[C@@H](CS)C(=O)O)
T8 peptide: H-SSPG[pS]PGTPC-OH

B1: Humanized × [MAPT_H] mAb (Ta1505 VL46/VH11) IgG4 S228P/Kappa (CX) (antibody)
heavy: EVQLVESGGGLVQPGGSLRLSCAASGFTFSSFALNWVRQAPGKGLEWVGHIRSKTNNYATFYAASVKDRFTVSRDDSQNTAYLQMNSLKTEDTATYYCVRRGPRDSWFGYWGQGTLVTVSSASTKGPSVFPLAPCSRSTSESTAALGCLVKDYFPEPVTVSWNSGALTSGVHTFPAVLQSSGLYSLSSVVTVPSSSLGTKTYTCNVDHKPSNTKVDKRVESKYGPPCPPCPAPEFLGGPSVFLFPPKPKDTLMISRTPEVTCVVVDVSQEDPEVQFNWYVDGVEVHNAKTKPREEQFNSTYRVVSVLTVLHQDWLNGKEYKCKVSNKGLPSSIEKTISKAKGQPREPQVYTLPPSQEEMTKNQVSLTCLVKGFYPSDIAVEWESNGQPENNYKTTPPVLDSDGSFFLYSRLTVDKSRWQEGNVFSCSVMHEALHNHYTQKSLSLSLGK
light: DIVMTQSPLSLPVTLGEPASISCRSSQSIVHSNGNTYLEWYLQKPGQSPQLLIYTVSNRFSGVPDRFSGSGSGTDFTLKISRVEAEDLGVYYCFQGSHLPLTFGGGTKVEIKRTVAAPSVFIFPPSDEQLKSGTASVVCLLNNFYPREAKVQWKVDNALQSGNSQESVTEQDSKDSTYSLSSTLTLSKADYEKHKVYACEVTHQGLSSPVTKSFNRGEC
B2: humanized antibody L48H61 (antibody, human IgG1, kappa, V domains shown)
VH: EVQLVESGGGLVQPGGSLRLSCAASGFTFNSFALNWVRQAPGKGLEWVVHIRSKTNNYATFYADSVKDRFTVSRDDSKNTAYLQMNSLKTEDTATYYCVRRGPRDSWFGYWGQGTLVTVSS
VL: DIVMTQSPLSLPVTLGDPASISCRSSQNIVHSNGNTYLEWYQQKPGQSPQLLIYTVSNRFSGVPDRFSGSGSGTDFTLKISRVEAEDLGVYYCFQGSHLPLTFGGGTKVEIKR
notes: VL48/VH61, human IgG1/kappa
B3: humanized antibody L48H62 (antibody, human IgG1, kappa, V domains shown)
VH: EVQLVESGGGLVQPGGSLRLSCAASGFAFNSFALNWVRQAPGKGLEWVVHIRSKTNNYATFYADSVKDRFTVSRDDSKNTAYLQMNSLKTEDTATYYCVRRGPRDSWFGYWGQGTLVTVSS
VL: DIVMTQSPLSLPVTLGDPASISCRSSQNIVHSNGNTYLEWYQQKPGQSPQLLIYTVSNRFSGVPDRFSGSGSGTDFTLKISRVEAEDLGVYYCFQGSHLPLTFGGGTKVEIKR
notes: VL48/VH62, human IgG1/kappa
B4: humanized antibody L50H11 (antibody, human IgG1, kappa, V domains shown)
VH: EVQLVESGGGLVQPGGSLRLSCAASGFTFSSFALNWVRQAPGKGLEWVGHIRSKTNNYATFYAASVKDRFTVSRDDSQNTAYLQMNSLKTEDTATYYCVRRGPRDSWFGYWGQGTLVTVSS
VL: DIVMTQSPLSLPVTLGDPASISCRSSQNIVHSNGNTYLEWYQQKPGQSPRLLIYTVSNRFSGVPDRFSGSGSGTDFTLKISRVEAEDLGVYYCFQGSHLPLTFGGGTKVEIKR
notes: VL50/VH11, human IgG1/kappa
B5: humanized antibody L48H64 (antibody, human IgG1, kappa, V domains shown)
VH: EVQLVESGGGLVQPGGSLRLSCAASGFTFNSFALNWVRQAPGKGLEWVVHIRSKTNNYATFYAASVKDRFTVSRDDSQNTAYLQMNSLKTEDTATYYCVRRGPRDSWFGYWGQGTLVTVSS
VL: DIVMTQSPLSLPVTLGDPASISCRSSQNIVHSNGNTYLEWYQQKPGQSPQLLIYTVSNRFSGVPDRFSGSGSGTDFTLKISRVEAEDLGVYYCFQGSHLPLTFGGGTKVEIKR
notes: VL48/VH64, human IgG1/kappa

What was measured:
[1] = target: Ser413 phosphorylated tau protein (pSer413-Tau) derived from Alzheimer's disease patient brain homogenate (human, UniProt P10636-8 2-441, limits assumed, phosphoserine at Ser413 (numbering of SEQ ID NO: 1)); assay: cell-based or functional assay
[2] = target: T9, His-tagged non-phosphorylated tau protein 4R0N (human, UniProt P10636 2-758); assay: SPR Biacore T200, antigen immobilized
T9 construct: Produced by Escherichia coli; negative control in SPR; also called ATGen Cat. No. ATGP0795
Method: The binding affinities of the hyperphosphorylated tau protein 4R2N (hpTau), non-phosphorylated tau protein 4R0N, monophosphorylated tau peptide 1×P, triphosphorylated tau peptide 3×P, and non-phosphorylated tau peptide Non P with each antibody were measured with an SPR system Biacore T200 (GE Healthcare Japan), in accordance with the instruction manual for evaluation attached to the system.
The His-tagged hpTau or Tau proteins were each immobilized on a sensor chip using an HBS-N buffer (code No. BR-1003-69) as the immobilization reaction solution and allowing a nickel chloride solution to react with the NTA sensor chip for bonding Ni to NTA. Subsequently, the sensor chip was activated with a mixed solution of N-ethyl-N′-(3-dimethylaminopropyl)-carbodiimide hydrochloride (1-ethyl-3-(3-dimethylaminopropyl)carbodiimide hydrochloride: EDC) and N-hydroxysuccinimide (NHS). A solution of each of the His-tagged proteins, adjusted to a concentration of 100 to 500 ng/mL with a 4-(2-hydroxyethyl)-1-piperazineethanesulfonic acid (HEPES) buffer (0.01 M HEPES, 150 mM KCl, 2 mM DTT, 1 mM EDTA, pH 7.2), was applied to the sensor chip, whereby the protein was immobilized on the sensor chip through covalent bonds with the Ni-NTA. The remaining active NHS was blocked with ethanolamine, and Ni ions were removed with an EDTA solution (Ni-affinity amine coupling: see International Publication No. WO2005/022156). The antigen peptides (1×P, 3×P, and Non P) were each immobilized on a sensor chip by activating the NTA sensor chip with a mixed solution of N-ethyl-N′-(3-dimethylaminopropyl)-carbodiimide (EDC) hydrochloride and N-hydroxysuccinimide (NHS), and then applying a solution of the antigen peptide diluted with a 10 mM sodium acetate buffer (pH: 4 to 4.5) to 1 to 10 μM to the sensor chip, whereby the peptide was covalently bound to the sensor chip. The remaining active NHS was blocked with ethanolamine. Thus, sensor chips immobilized respectively with the proteins and peptides mentioned above were produced.
A CAPS buffer (pH 10.5) was applied to these sensor chips at 37° C. to stabilize the protein- or peptide-immobilized surfaces of the sensor chips.

[3] = target: T1, Peptide No. 4, pT212/pS214, …; assay: ELISA, coated peptide
In short: (§1)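 Peptides, or their bovine serum albumin or keyhole limpet hemocyanin conjugates, at 1 μg/mL in cold PBS were coated at 50 μL/well overnight at 4 °C, then blocked with 3% BSA-PBS overnight at 4 °C. Purified antibody at 150 ng/mL in 3% BSA-PBS was bound for 90 minutes at room temperature, followed by alkaline phosphatase-labelled goat anti-human IgG (H+L) (2000-fold, 60 minutes). Binding was read as absorbance at 405 nm (reference 550 nm) after 40 minutes of pNPP development.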

[4] = target: T2, Peptide No. 1, pS46, H-GLKE(pS)PLQT-OH; assay: ELISA, coated peptide
In short: as §1

[5] = target: T3, Peptide No. 8, pS412, H-NV(pS)STGSC-OH; assay: ELISA, coated peptide
In short: as §1

[6] = target: T4, Peptide No. 2, pS199, …; assay: ELISA, coated peptide
In short: as §1

[7] = target: T5, Peptide No. 7, pS396/pS400/pS404, …; assay: ELISA, coated peptide
In short: as §1

[8] = target: T6, Peptide No. 5, pT217, …; assay: ELISA, coated peptide
In short: as §1

[9] = target: T7, Peptide No. 6, pT231, …; assay: ELISA, coated peptide
In short: as §1

[10] = target: T8, Peptide No. 3, pS202, H-SSPG(pS)PGTPC-OH; assay: ELISA, coated peptide
In short: as §1

T9 sequence (P10636 other isoform, or with tags, fused parts or gaps limits assumed): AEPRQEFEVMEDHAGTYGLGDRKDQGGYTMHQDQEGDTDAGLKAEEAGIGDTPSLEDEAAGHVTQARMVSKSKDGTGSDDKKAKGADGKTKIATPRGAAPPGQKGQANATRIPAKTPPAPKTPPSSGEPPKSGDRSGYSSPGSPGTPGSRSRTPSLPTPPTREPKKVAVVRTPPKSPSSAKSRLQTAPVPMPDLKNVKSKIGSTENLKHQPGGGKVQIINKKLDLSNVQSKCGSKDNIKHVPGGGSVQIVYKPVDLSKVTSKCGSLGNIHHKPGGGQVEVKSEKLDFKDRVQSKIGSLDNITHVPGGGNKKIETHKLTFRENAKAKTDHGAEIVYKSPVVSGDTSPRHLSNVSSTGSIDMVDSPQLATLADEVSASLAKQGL
Chain of Ser413 phosphorylated tau protein (pSer413-Tau) derived from Alzheimer's disease patient brain homogenate (P10636 other isoform, or with tags, fused parts or gaps limits assumed): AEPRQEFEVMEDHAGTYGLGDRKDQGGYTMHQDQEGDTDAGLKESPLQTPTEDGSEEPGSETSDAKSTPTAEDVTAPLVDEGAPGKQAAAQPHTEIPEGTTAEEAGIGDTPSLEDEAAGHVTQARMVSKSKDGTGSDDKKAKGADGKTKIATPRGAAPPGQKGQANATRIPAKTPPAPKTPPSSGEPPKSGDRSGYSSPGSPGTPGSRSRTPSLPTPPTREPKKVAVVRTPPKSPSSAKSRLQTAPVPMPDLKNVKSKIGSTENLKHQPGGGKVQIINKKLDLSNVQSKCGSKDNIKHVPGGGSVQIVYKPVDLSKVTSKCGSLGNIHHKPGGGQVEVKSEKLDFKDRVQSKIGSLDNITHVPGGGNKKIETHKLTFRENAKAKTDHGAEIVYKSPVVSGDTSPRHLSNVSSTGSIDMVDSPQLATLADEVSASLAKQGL

Binder	IC50 of the fall of the AT8 AlphaLISA signal with the antibody concentration (signal falls from about 7500 to about 4400 at the highest concentration, about 400 nM; no lower plateau) [1] [nM]	binding result [2]	binding result [3]	binding result [4]	binding result [5]	binding result [6]	binding result [7]	binding result [8]	binding result [9]	binding result [10]
B1	175	–	–	–	–	–	–	–	–	–
B2	–	no binding (tested: 0.2 to 1 nM)	no binding (tested: OD value <0.5; antibody 150 ng/mL)	no binding (tested: OD value <0.5; antibody 150 ng/mL)	no binding (tested: OD value <0.5; antibody 150 ng/mL)	no binding (tested: OD value <0.5; antibody 150 ng/mL)	no binding (tested: OD value <0.5; antibody 150 ng/mL)	no binding (tested: OD value <0.5; antibody 150 ng/mL)	no binding (tested: OD value <0.5; antibody 150 ng/mL)	no binding (tested: OD value <0.5; antibody 150 ng/mL)
B3	–	no binding (tested: 0.2 to 1 nM)	no binding (tested: OD value <0.5; antibody 150 ng/mL)	no binding (tested: OD value <0.5; antibody 150 ng/mL)	no binding (tested: OD value <0.5; antibody 150 ng/mL)	no binding (tested: OD value <0.5; antibody 150 ng/mL)	no binding (tested: OD value <0.5; antibody 150 ng/mL)	no binding (tested: OD value <0.5; antibody 150 ng/mL)	no binding (tested: OD value <0.5; antibody 150 ng/mL)	no binding (tested: OD value <0.5; antibody 150 ng/mL)
B4	–	no binding (tested: 0.2 to 1 nM)	no binding (tested: OD value <0.5; antibody 150 ng/mL)	no binding (tested: OD value <0.5; antibody 150 ng/mL)	no binding (tested: OD value <0.5; antibody 150 ng/mL)	no binding (tested: OD value <0.5; antibody 150 ng/mL)	no binding (tested: OD value <0.5; antibody 150 ng/mL)	no binding (tested: OD value <0.5; antibody 150 ng/mL)	no binding (tested: OD value <0.5; antibody 150 ng/mL)	no binding (tested: OD value <0.5; antibody 150 ng/mL)
B5	–	no binding (tested: 0.2 to 1 nM)	no binding (tested: OD value <0.5; antibody 150 ng/mL)	no binding (tested: OD value <0.5; antibody 150 ng/mL)	no binding (tested: OD value <0.5; antibody 150 ng/mL)	no binding (tested: OD value <0.5; antibody 150 ng/mL)	no binding (tested: OD value <0.5; antibody 150 ng/mL)	no binding (tested: OD value <0.5; antibody 150 ng/mL)	no binding (tested: OD value <0.5; antibody 150 ng/mL)	no binding (tested: OD value <0.5; antibody 150 ng/mL)
